In patent publication US11499162B2, “Plants having increased tolerance to herbicides” (BASF SE, priority 2016, dated 2022):

Type: biochemical
Settings: pH 7.2
Summary of the method: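 E. coli resting cells expressing His-tagged TriA incubated with azines, melamine or atrazine. Enzyme in 25 mM sodium phosphate pH 7.2 at 30 °C, substrate 1–10 nM. Loss of parent and formation of OH-metabolite followed by UPLC-HR-MS; % degradation relative to empty-vector cells.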

Molecule | Degradation in % of 6-cyclopentyl-N4-(2,3,4,5,6-pentafluorophenyl)-1,3,5-triazine-2,4-diamine [%] | Degradation in % of Melamine [%]
L74A: mutated TriA variant of SEQ ID NO: 2 (protein, Pseudomonas) MQTLSIQHGTLVTMDQYRRVLGDSWVHVQDGRIVALGVHAESVPPPADRVIDARGKVVLPGFINAHTHVNQILARGGPSHGRQLYDWLFNVLYPGQKAMRPEDVAVAVRLYCAEAVRSGITTINDNADSAIYPGNIEAAMAVYGEVGVRVVYARMFFDRMDGRIQGYVDALKARSPQVELCSIMEETAVAKDRITALSDQYHGTAGGRISVWPAPAITPAVTVEGMRWAQAFARDRAVMWTLHMAESDHDERLHWMSPAEYMECYGLLDERLQVAHCVYFDRKDVRLLHRHNVKVASQVVSNAYLGSGVAPVPEMVERGMAVGIGTDDGNCNDSVNMIGDMKFMAHIHRAVHRDADVLTPEKILEMATIDGARSLGMDHEIGSIETGKRADLILLDLRHPQTTPHHHLAATIVFQAYGNEVDTVLIDGNVVMENRRLSFLPPERELAFLEEAQSRATAILQRANMVANPAWRSL | 1 | 0
R82L: mutated TriA variant of SEQ ID NO: 2 (protein, Pseudomonas) MQTLSIQHGTLVTMDQYRRVLGDSWVHVQDGRIVALGVHAESVPPPADRVIDARGKVVLPGFINAHTHVNQILLRGGPSHGLQLYDWLFNVLYPGQKAMRPEDVAVAVRLYCAEAVRSGITTINDNADSAIYPGNIEAAMAVYGEVGVRVVYARMFFDRMDGRIQGYVDALKARSPQVELCSIMEETAVAKDRITALSDQYHGTAGGRISVWPAPAITPAVTVEGMRWAQAFARDRAVMWTLHMAESDHDERLHWMSPAEYMECYGLLDERLQVAHCVYFDRKDVRLLHRHNVKVASQVVSNAYLGSGVAPVPEMVERGMAVGIGTDDGNCNDSVNMIGDMKFMAHIHRAVHRDADVLTPEKILEMATIDGARSLGMDHEIGSIETGKRADLILLDLRHPQTTPHHHLAATIVFQAYGNEVDTVLIDGNVVMENRRLSFLPPERELAFLEEAQSRATAILQRANMVANPAWRSL | 1 | 1
R82M: mutated TriA variant of SEQ ID NO: 2 (protein, Pseudomonas) MQTLSIQHGTLVTMDQYRRVLGDSWVHVQDGRIVALGVHAESVPPPADRVIDARGKVVLPGFINAHTHVNQILLRGGPSHGMQLYDWLFNVLYPGQKAMRPEDVAVAVRLYCAEAVRSGITTINDNADSAIYPGNIEAAMAVYGEVGVRVVYARMFFDRMDGRIQGYVDALKARSPQVELCSIMEETAVAKDRITALSDQYHGTAGGRISVWPAPAITPAVTVEGMRWAQAFARDRAVMWTLHMAESDHDERLHWMSPAEYMECYGLLDERLQVAHCVYFDRKDVRLLHRHNVKVASQVVSNAYLGSGVAPVPEMVERGMAVGIGTDDGNCNDSVNMIGDMKFMAHIHRAVHRDADVLTPEKILEMATIDGARSLGMDHEIGSIETGKRADLILLDLRHPQTTPHHHLAATIVFQAYGNEVDTVLIDGNVVMENRRLSFLPPERELAFLEEAQSRATAILQRANMVANPAWRSL | 2 | 2
Q96E: mutated TriA variant of SEQ ID NO: 2 (protein, Pseudomonas) MQTLSIQHGTLVTMDQYRRVLGDSWVHVQDGRIVALGVHAESVPPPADRVIDARGKVVLPGFINAHTHVNQILLRGGPSHGRQLYDWLFNVLYPGEKAMRPEDVAVAVRLYCAEAVRSGITTINDNADSAIYPGNIEAAMAVYGEVGVRVVYARMFFDRMDGRIQGYVDALKARSPQVELCSIMEETAVAKDRITALSDQYHGTAGGRISVWPAPAITPAVTVEGMRWAQAFARDRAVMWTLHMAESDHDERLHWMSPAEYMECYGLLDERLQVAHCVYFDRKDVRLLHRHNVKVASQVVSNAYLGSGVAPVPEMVERGMAVGIGTDDGNCNDSVNMIGDMKFMAHIHRAVHRDADVLTPEKILEMATIDGARSLGMDHEIGSIETGKRADLILLDLRHPQTTPHHHLAATIVFQAYGNEVDTVLIDGNVVMENRRLSFLPPERELAFLEEAQSRATAILQRANMVANPAWRSL | 0 | 0
R82G: mutated TriA variant of SEQ ID NO: 2 (protein, Pseudomonas) MQTLSIQHGTLVTMDQYRRVLGDSWVHVQDGRIVALGVHAESVPPPADRVIDARGKVVLPGFINAHTHVNQILLRGGPSHGGQLYDWLFNVLYPGQKAMRPEDVAVAVRLYCAEAVRSGITTINDNADSAIYPGNIEAAMAVYGEVGVRVVYARMFFDRMDGRIQGYVDALKARSPQVELCSIMEETAVAKDRITALSDQYHGTAGGRISVWPAPAITPAVTVEGMRWAQAFARDRAVMWTLHMAESDHDERLHWMSPAEYMECYGLLDERLQVAHCVYFDRKDVRLLHRHNVKVASQVVSNAYLGSGVAPVPEMVERGMAVGIGTDDGNCNDSVNMIGDMKFMAHIHRAVHRDADVLTPEKILEMATIDGARSLGMDHEIGSIETGKRADLILLDLRHPQTTPHHHLAATIVFQAYGNEVDTVLIDGNVVMENRRLSFLPPERELAFLEEAQSRATAILQRANMVANPAWRSL | 0 | 0
N70LQ71IL74A: mutated TriA variant of SEQ ID NO: 2 (protein, Pseudomonas) MQTLSIQHGTLVTMDQYRRVLGDSWVHVQDGRIVALGVHAESVPPPADRVIDARGKVVLPGFINAHTHVLIILARGGPSHGRQLYDWLFNVLYPGQKAMRPEDVAVAVRLYCAEAVRSGITTINDNADSAIYPGNIEAAMAVYGEVGVRVVYARMFFDRMDGRIQGYVDALKARSPQVELCSIMEETAVAKDRITALSDQYHGTAGGRISVWPAPAITPAVTVEGMRWAQAFARDRAVMWTLHMAESDHDERLHWMSPAEYMECYGLLDERLQVAHCVYFDRKDVRLLHRHNVKVASQVVSNAYLGSGVAPVPEMVERGMAVGIGTDDGNCNDSVNMIGDMKFMAHIHRAVHRDADVLTPEKILEMATIDGARSLGMDHEIGSIETGKRADLILLDLRHPQTTPHHHLAATIVFQAYGNEVDTVLIDGNVVMENRRLSFLPPERELAFLEEAQSRATAILQRANMVANPAWRSL | 0 | 2
Q96N: mutated TriA variant of SEQ ID NO: 2 (protein, Pseudomonas) MQTLSIQHGTLVTMDQYRRVLGDSWVHVQDGRIVALGVHAESVPPPADRVIDARGKVVLPGFINAHTHVNQILLRGGPSHGRQLYDWLFNVLYPGNKAMRPEDVAVAVRLYCAEAVRSGITTINDNADSAIYPGNIEAAMAVYGEVGVRVVYARMFFDRMDGRIQGYVDALKARSPQVELCSIMEETAVAKDRITALSDQYHGTAGGRISVWPAPAITPAVTVEGMRWAQAFARDRAVMWTLHMAESDHDERLHWMSPAEYMECYGLLDERLQVAHCVYFDRKDVRLLHRHNVKVASQVVSNAYLGSGVAPVPEMVERGMAVGIGTDDGNCNDSVNMIGDMKFMAHIHRAVHRDADVLTPEKILEMATIDGARSLGMDHEIGSIETGKRADLILLDLRHPQTTPHHHLAATIVFQAYGNEVDTVLIDGNVVMENRRLSFLPPERELAFLEEAQSRATAILQRANMVANPAWRSL | 2 | 2
N126A: mutated TriA variant of SEQ ID NO: 2 (protein, Pseudomonas) MQTLSIQHGTLVTMDQYRRVLGDSWVHVQDGRIVALGVHAESVPPPADRVIDARGKVVLPGFINAHTHVNQILLRGGPSHGRQLYDWLFNVLYPGQKAMRPEDVAVAVRLYCAEAVRSGITTINDAADSAIYPGNIEAAMAVYGEVGVRVVYARMFFDRMDGRIQGYVDALKARSPQVELCSIMEETAVAKDRITALSDQYHGTAGGRISVWPAPAITPAVTVEGMRWAQAFARDRAVMWTLHMAESDHDERLHWMSPAEYMECYGLLDERLQVAHCVYFDRKDVRLLHRHNVKVASQVVSNAYLGSGVAPVPEMVERGMAVGIGTDDGNCNDSVNMIGDMKFMAHIHRAVHRDADVLTPEKILEMATIDGARSLGMDHEIGSIETGKRADLILLDLRHPQTTPHHHLAATIVFQAYGNEVDTVLIDGNVVMENRRLSFLPPERELAFLEEAQSRATAILQRANMVANPAWRSL | 4 | 2
Q96A: mutated TriA variant of SEQ ID NO: 2 (protein, Pseudomonas) MQTLSIQHGTLVTMDQYRRVLGDSWVHVQDGRIVALGVHAESVPPPADRVIDARGKVVLPGFINAHTHVNQILLRGGPSHGRQLYDWLFNVLYPGAKAMRPEDVAVAVRLYCAEAVRSGITTINDNADSAIYPGNIEAAMAVYGEVGVRVVYARMFFDRMDGRIQGYVDALKARSPQVELCSIMEETAVAKDRITALSDQYHGTAGGRISVWPAPAITPAVTVEGMRWAQAFARDRAVMWTLHMAESDHDERLHWMSPAEYMECYGLLDERLQVAHCVYFDRKDVRLLHRHNVKVASQVVSNAYLGSGVAPVPEMVERGMAVGIGTDDGNCNDSVNMIGDMKFMAHIHRAVHRDADVLTPEKILEMATIDGARSLGMDHEIGSIETGKRADLILLDLRHPQTTPHHHLAATIVFQAYGNEVDTVLIDGNVVMENRRLSFLPPERELAFLEEAQSRATAILQRANMVANPAWRSL | 0 | 0
Q96D: mutated TriA variant of SEQ ID NO: 2 (protein, Pseudomonas) MQTLSIQHGTLVTMDQYRRVLGDSWVHVQDGRIVALGVHAESVPPPADRVIDARGKVVLPGFINAHTHVNQILLRGGPSHGRQLYDWLFNVLYPGDKAMRPEDVAVAVRLYCAEAVRSGITTINDNADSAIYPGNIEAAMAVYGEVGVRVVYARMFFDRMDGRIQGYVDALKARSPQVELCSIMEETAVAKDRITALSDQYHGTAGGRISVWPAPAITPAVTVEGMRWAQAFARDRAVMWTLHMAESDHDERLHWMSPAEYMECYGLLDERLQVAHCVYFDRKDVRLLHRHNVKVASQVVSNAYLGSGVAPVPEMVERGMAVGIGTDDGNCNDSVNMIGDMKFMAHIHRAVHRDADVLTPEKILEMATIDGARSLGMDHEIGSIETGKRADLILLDLRHPQTTPHHHLAATIVFQAYGNEVDTVLIDGNVVMENRRLSFLPPERELAFLEEAQSRATAILQRANMVANPAWRSL | 4 | 0
